According to article PMC4338369:

Target: alkyl hydroperoxide reductase subunit C (peroxiredoxin) from Amphibacillus xylanus (Amphibacillus xylanus) (UniProt K0J4Q8)
Assay: SPR

Substance: NADH oxidase from Amphibacillus xylanus (enzyme)
- kon: 29 M⁻¹ s⁻¹
